The supplement of paper PMC9112550, “Optimization of the antimicrobial peptide Bac7 by deep mutational scanning” (BMC Biology, 2022)

Tested on: Escherichia coli TOP10
Assay: shrunken log2 fold change of peptide-encoding DNA abundance (4.5 h post-induction vs induction); higher = less antimicrobial activity (less host growth inhibition)
Conditions: time post-induction: 4.5 h; library: site-saturation at positions 5, 18, 19, 20
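Further: peptides expressed intracellularly from a pBAD plasmid library in pooled LB shake-flask culture, induced with 0.3% L-arabinose, DNA abundance read by NGS, three biological replicates, DESeq2 with apeglm shrinkage.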

Sequence	shrunken log2 fold change
RRIRYRPPRLPRPRPRPAKLPRP	-0.194
RRIRIRPPRLPRPRPRPGIHPRP	-0.31
RRIRVRPPRLPRPRPRPARRPRP	0.382
RRIRGRPPRLPRPRPRPPNNPRP	0.835
RRIRHRPPRLPRPRPRPQCHPRP	-0.202
RRIRERPPRLPRPRPRPIQMPRP	-0.14
RRIRKRPPRLPRPRPRPYVDPRP	-0.24
RRIRTRPPRLPRPRPRPGIEPRP	-0.278
RRIRMRPPRLPRPRPRPNQWPRP	2.38
RRIRQRPPRLPRPRPRPAAHPRP	0.179
RRIRLRPPRLPRPRPRPNGVPRP	0.0191
RRIRKRPPRLPRPRPRPCVIPRP	0.0227
RRIRQRPPRLPRPRPRPFMWPRP	-0.245
RRIRNRPPRLPRPRPRPSKTPRP	-0.454
RRIRCRPPRLPRPRPRPLSNPRP	0.504
RRIRWRPPRLPRPRPRPWSQPRP	0.298
RRIRLRPPRLPRPRPRPGFQPRP	-0.0314
RRIRTRPPRLPRPRPRPCRWPRP	-0.00822
RRIRNRPPRLPRPRPRPSWIPRP	-0.425
RRIRARPPRLPRPRPRPFCDPRP	0.0183
RRIRQRPPRLPRPRPRPYLDPRP	-0.286
RRIRSRPPRLPRPRPRPDGCPRP	0.0344
RRIRMRPPRLPRPRPRPLYDPRP	-0.0878
RRIRQRPPRLPRPRPRPQASPRP	0.0433
RRIRQRPPRLPRPRPRPCWYPRP	-0.261

Sequence	shrunken log2 fold change
RRIRPRPPRLPRPRPRPYLDPRP	-0.908
RRIRHRPPRLPRPRPRPWARPRP	-0.00568
RRIRYRPPRLPRPRPRPYMVPRP	-0.386
RRIRGRPPRLPRPRPRPEAYPRP	0.0504
RRIRWRPPRLPRPRPRPNSMPRP	-0.114
RRIRERPPRLPRPRPRPTRLPRP	0.576
RRIRDRPPRLPRPRPRPIFFPRP	0.0831
RRIRLRPPRLPRPRPRPGRTPRP	0.292
RRIRCRPPRLPRPRPRPESAPRP	0.703
RRIRWRPPRLPRPRPRPHYSPRP	-0.279
RRIRPRPPRLPRPRPRPRWPPRP	0.616
RRIRNRPPRLPRPRPRPHEMPRP	-0.33
RRIRTRPPRLPRPRPRPTVPPRP	0.0189
RRIRARPPRLPRPRPRPRHSPRP	-0.00589
RRIRIRPPRLPRPRPRPKGLPRP	0.121
RRIRIRPPRLPRPRPRPMMTPRP	-0.115
RRIRQRPPRLPRPRPRPKFEPRP	-0.0683
RRIRYRPPRLPRPRPRPDAGPRP	-0.492
RRIRDRPPRLPRPRPRPPVVPRP	-0.0109
RRIRERPPRLPRPRPRPIHSPRP	-1.52
RRIRPRPPRLPRPRPRPHMAPRP	-0.276
RRIRWRPPRLPRPRPRPPAHPRP	0.498
RRIRMRPPRLPRPRPRPLHAPRP	1.29
RRIRDRPPRLPRPRPRPLIFPRP	0.135
RRIRNRPPRLPRPRPRPCGAPRP	0.144

Sequence	shrunken log2 fold change
RRIRNRPPRLPRPRPRPLWLPRP	-0.181
RRIRRRPPRLPRPRPRPMCHPRP	-0.191
RRIRLRPPRLPRPRPRPESVPRP	0.255
RRIRRRPPRLPRPRPRPMFQPRP	0.155
RRIRHRPPRLPRPRPRPKHGPRP	0.109
RRIRARPPRLPRPRPRPCNQPRP	-0.253
RRIRMRPPRLPRPRPRPVLQPRP	0.259
RRIRHRPPRLPRPRPRPVMDPRP	0.153
RRIRSRPPRLPRPRPRPYDMPRP	-0.122
RRIRVRPPRLPRPRPRPYCMPRP	-0.898
RRIRDRPPRLPRPRPRPVKGPRP	0.0617
RRIRVRPPRLPRPRPRPCGCPRP	0.0165
RRIRFRPPRLPRPRPRPDYGPRP	-0.238
RRIRERPPRLPRPRPRPKVIPRP	-0.0206
RRIRQRPPRLPRPRPRPAPEPRP	0.228
RRIRIRPPRLPRPRPRPDGKPRP	-0.000921
RRIRKRPPRLPRPRPRPRYDPRP	-0.0842
RRIRPRPPRLPRPRPRPASFPRP	0.0681
RRIRSRPPRLPRPRPRPCKDPRP	-0.153
RRIRMRPPRLPRPRPRPGYWPRP	0.0653
RRIRDRPPRLPRPRPRPEMIPRP	0.0934
RRIRARPPRLPRPRPRPVCGPRP	0.653
RRIRLRPPRLPRPRPRPGVTPRP	0.0426
RRIRGRPPRLPRPRPRPWYRPRP	-0.19
RRIRPRPPRLPRPRPRPHPGPRP	2.42
